From article PMC3408336 come the findings set out here.

Assay [1] addresses SF162 gp120 L494V (HIV-1 SF162 (subtype B)). Briefly: fluorescence polarisation; fluorescently labelled M48 or M48U1 with purified monomeric recombinant SF162 gp120 (concentrations standardised by ELISA with D7324); LJL Analyst reader; Kd by non-linear regression; results given as fold increase in Kd relative to native SF162 gp120; as in ref. 68.
Assay [2] addresses SF162 gp120 S375N (HIV-1 SF162 (subtype B)). Described as above.
Assay [3] has as its target SF162 gp120 D474N (HIV-1 SF162 (subtype B)). The description is as above.
Assay [4] addresses SF162 gp120 G335R (HIV-1 SF162 (subtype B)). The description is as above.
Assay [5] has as its target CD4 mimetic miniprotein M48U1. Kind of assay: fluorescence polarization. As to conditions: read off a plot.

For “CD4 mimetic miniprotein M48U1 (designed binder)”, the fold Kd relative to WT SF162 gp120 in assay [1], in assay [2], in assay [3] and in assay [4] was 1 fold in each case.

In the case of “SF162 gp120, wild type (monomeric recombinant) G471R”, in assay [5], the ratio to parent worked out at 3.8.

Consider “SF162 gp120, wild type (monomeric recombinant) H105Y”, for which the ratio to parent in assay [5] worked out at 3.8.

On to “SF162 gp120, wild type (monomeric recombinant) S375R”, for which, in assay [5], the ratio to parent came out at 1900.

As to “SF162 gp120, wild type (monomeric recombinant) V255M”, the ratio to parent in assay [5] worked out at 9.6.
